91 sequences from the supplement of paper PMC9112550, “Optimization of the antimicrobial peptide Bac7 by deep mutational scanning” (BMC Biology, 2022) can be followed below.

In the data set the test system is Escherichia coli TOP10. Briefly: shrunken log2 fold change of peptide-encoding DNA abundance (4.5 h post-induction vs induction); higher = less antimicrobial activity (less host growth inhibition). Conditions: time post-induction: 4.5 h; library: site-saturation at positions 5, 18, 19, 20.
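Further: peptides expressed intracellularly from a pBAD plasmid library in pooled LB shake-flask culture, induced with 0.3% L-arabinose, DNA abundance read by NGS, three biological replicates, DESeq2 with apeglm shrinkage.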

For the sequence RRIRYRPPRLPRPRPRPKCCPRP, the “shrunken log2 fold change” value was determined as 0.013.

Regarding RRIRGRPPRLPRPRPRPPCQPRP, the “shrunken log2 fold change” value turned out to be 0.283.

For RRIRWRPPRLPRPRPRPDSPPRP, the “shrunken log2 fold change” value worked out at 0.0588.

With RRIRKRPPRLPRPRPRPYNPPRP, the “shrunken log2 fold change” value was -1.13.

For the sequence RRIRARPPRLPRPRPRPCNTPRP, the “shrunken log2 fold change” value is -0.0534.

For RRIRQRPPRLPRPRPRPHIQPRP, the “shrunken log2 fold change” value is -0.444.

For the sequence RRIRVRPPRLPRPRPRPNFMPRP, the “shrunken log2 fold change” value was determined as 0.0796.

Regarding RRIRCRPPRLPRPRPRPILIPRP, the “shrunken log2 fold change” value was found to be 1.28.

For the sequence RRIRKRPPRLPRPRPRPPSHPRP, the “shrunken log2 fold change” value is 0.543.

RRIRQRPPRLPRPRPRPQWAPRP: the “shrunken log2 fold change” value turned out to be 0.142.

RRIRCRPPRLPRPRPRPWWLPRP: the “shrunken log2 fold change” value is -0.0111.

In the case of RRIRCRPPRLPRPRPRPFALPRP, the “shrunken log2 fold change” value is -0.33.

RRIRERPPRLPRPRPRPEKGPRP: the “shrunken log2 fold change” value was -0.0493.

Take RRIRWRPPRLPRPRPRPNDTPRP: the “shrunken log2 fold change” value is -0.268.

Regarding RRIRVRPPRLPRPRPRPVQQPRP, the “shrunken log2 fold change” value is -0.246.

Take RRIRRRPPRLPRPRPRPWKFPRP: the “shrunken log2 fold change” value is -0.0344.

For RRIRYRPPRLPRPRPRPPRMPRP, the “shrunken log2 fold change” value is -0.215.

Turning to RRIRFRPPRLPRPRPRPYMYPRP, the “shrunken log2 fold change” value is -0.635.

With RRIRARPPRLPRPRPRPPVCPRP, the “shrunken log2 fold change” value is 0.276.

Take RRIRKRPPRLPRPRPRPYDMPRP: the “shrunken log2 fold change” value was -0.0843.

For RRIRIRPPRLPRPRPRPKLIPRP, the “shrunken log2 fold change” value is -0.233.

In the case of RRIRCRPPRLPRPRPRPVANPRP, the “shrunken log2 fold change” value was determined as 0.0866.

As for RRIRGRPPRLPRPRPRPIMMPRP, the “shrunken log2 fold change” value is -0.0902.

Turning to RRIRVRPPRLPRPRPRPCGCPRP, the “shrunken log2 fold change” value turned out to be 0.0165.

As to RRIRIRPPRLPRPRPRPVFVPRP, the “shrunken log2 fold change” value was -0.397.

For the sequence RRIRWRPPRLPRPRPRPHIVPRP, the “shrunken log2 fold change” value is -0.102.

Turning to RRIRSRPPRLPRPRPRPCCVPRP, the “shrunken log2 fold change” value was determined as 0.0729.

For the sequence RRIRWRPPRLPRPRPRPSNCPRP, the “shrunken log2 fold change” value is -0.0121.

In the case of RRIRIRPPRLPRPRPRPEWRPRP, the “shrunken log2 fold change” value came out at 0.257.

Consider RRIRDRPPRLPRPRPRPPWQPRP, for which the “shrunken log2 fold change” value stood at 0.475.

Regarding RRIRKRPPRLPRPRPRPLIWPRP, the “shrunken log2 fold change” value stood at 0.761.

As for RRIRDRPPRLPRPRPRPGSLPRP, the “shrunken log2 fold change” value was -0.0141.

On to RRIRDRPPRLPRPRPRPHYTPRP, for which the “shrunken log2 fold change” value is -0.73.

In the case of RRIRIRPPRLPRPRPRPVLAPRP, the “shrunken log2 fold change” value was -0.0133.

RRIRFRPPRLPRPRPRPLSKPRP: the “shrunken log2 fold change” value was determined as 0.72.

For the sequence RRIRNRPPRLPRPRPRPWCYPRP, the “shrunken log2 fold change” value is -0.428.

Turning to RRIRMRPPRLPRPRPRPNGKPRP, the “shrunken log2 fold change” value was 0.321.

RRIRPRPPRLPRPRPRPCSFPRP: the “shrunken log2 fold change” value was -0.109.

For RRIRGRPPRLPRPRPRPRESPRP, the “shrunken log2 fold change” value is 1.26.

For the sequence RRIRMRPPRLPRPRPRPWDGPRP, the “shrunken log2 fold change” value is 0.0785.

On to RRIRMRPPRLPRPRPRPPNVPRP, for which the “shrunken log2 fold change” value came to 0.301.

Regarding RRIRIRPPRLPRPRPRPWHKPRP, the “shrunken log2 fold change” value is -0.00213.

For the sequence RRIRLRPPRLPRPRPRPQNNPRP, the “shrunken log2 fold change” value was -0.585.

With RRIRDRPPRLPRPRPRPMVSPRP, the “shrunken log2 fold change” value is -0.00166.

RRIRYRPPRLPRPRPRPWTKPRP: the “shrunken log2 fold change” value was -0.319.

Consider RRIRYRPPRLPRPRPRPQTDPRP, for which the “shrunken log2 fold change” value was -0.274.

Regarding RRIRHRPPRLPRPRPRPGNTPRP, the “shrunken log2 fold change” value is -0.319.

In the case of RRIRPRPPRLPRPRPRPNHFPRP, the “shrunken log2 fold change” value was -0.592.

RRIRQRPPRLPRPRPRPCELPRP: the “shrunken log2 fold change” value amounted to 0.0039.

In the case of RRIRPRPPRLPRPRPRPEVSPRP, the “shrunken log2 fold change” value was 0.0949.

As for RRIRYRPPRLPRPRPRPPNIPRP, the “shrunken log2 fold change” value is -0.659.

Regarding RRIRPRPPRLPRPRPRPVPNPRP, the “shrunken log2 fold change” value was determined as 0.14.

RRIRLRPPRLPRPRPRPPGAPRP: the “shrunken log2 fold change” value is 0.54.

Regarding RRIRFRPPRLPRPRPRPFSPPRP, the “shrunken log2 fold change” value was -1.12.

Consider RRIRERPPRLPRPRPRPFILPRP, for which the “shrunken log2 fold change” value is -0.784.

Take RRIRMRPPRLPRPRPRPPWGPRP: the “shrunken log2 fold change” value was 0.686.

In the case of RRIRNRPPRLPRPRPRPRMAPRP, the “shrunken log2 fold change” value is 0.424.

Consider RRIRQRPPRLPRPRPRPKWVPRP, for which the “shrunken log2 fold change” value amounted to 0.0809.

Turning to RRIRSRPPRLPRPRPRPWFRPRP, the “shrunken log2 fold change” value was 0.212.

Take RRIRDRPPRLPRPRPRPILYPRP: the “shrunken log2 fold change” value is -0.131.

Turning to RRIRVRPPRLPRPRPRPLNLPRP, the “shrunken log2 fold change” value is -0.304.

With RRIRARPPRLPRPRPRPCMWPRP, the “shrunken log2 fold change” value is 0.117.

Take RRIRCRPPRLPRPRPRPPPMPRP: the “shrunken log2 fold change” value was determined as 1.08.

As to RRIRFRPPRLPRPRPRPMTYPRP, the “shrunken log2 fold change” value is -0.0939.

Consider RRIRSRPPRLPRPRPRPWDPPRP, for which the “shrunken log2 fold change” value worked out at 0.0317.

Regarding RRIRFRPPRLPRPRPRPCVGPRP, the “shrunken log2 fold change” value was -0.433.

With RRIRFRPPRLPRPRPRPYDAPRP, the “shrunken log2 fold change” value was -1.06.

In the case of RRIRHRPPRLPRPRPRPSQFPRP, the “shrunken log2 fold change” value was -0.247.

For RRIRSRPPRLPRPRPRPNRLPRP, the “shrunken log2 fold change” value was -0.205.

Consider RRIRRRPPRLPRPRPRPAWCPRP, for which the “shrunken log2 fold change” value was determined as 0.568.

Take RRIRTRPPRLPRPRPRPKHEPRP: the “shrunken log2 fold change” value is -0.3.

RRIRIRPPRLPRPRPRPGKRPRP: the “shrunken log2 fold change” value was found to be 0.0192.

As to RRIRTRPPRLPRPRPRPCIRPRP, the “shrunken log2 fold change” value was -0.0289.

As for RRIRARPPRLPRPRPRPMMRPRP, the “shrunken log2 fold change” value was 1.22.

For RRIRIRPPRLPRPRPRPWFWPRP, the “shrunken log2 fold change” value was -0.313.

Consider RRIRIRPPRLPRPRPRPEDFPRP, for which the “shrunken log2 fold change” value was 0.00408.

For RRIRVRPPRLPRPRPRPWNVPRP, the “shrunken log2 fold change” value was -0.0441.

Take RRIRSRPPRLPRPRPRPSWGPRP: the “shrunken log2 fold change” value was -0.114.

Take RRIRHRPPRLPRPRPRPAKNPRP: the “shrunken log2 fold change” value is -0.207.

With RRIRWRPPRLPRPRPRPMPTPRP, the “shrunken log2 fold change” value was determined as 0.721.

For RRIRQRPPRLPRPRPRPFEEPRP, the “shrunken log2 fold change” value was -0.138.

Regarding RRIRARPPRLPRPRPRPMTSPRP, the “shrunken log2 fold change” value came to 0.237.

For the sequence RRIRNRPPRLPRPRPRPTPWPRP, the “shrunken log2 fold change” value was 0.161.

Consider RRIRERPPRLPRPRPRPNIGPRP, for which the “shrunken log2 fold change” value was -0.00187.

Consider RRIRMRPPRLPRPRPRPHRSPRP, for which the “shrunken log2 fold change” value was -0.0246.

In the case of RRIRQRPPRLPRPRPRPRKDPRP, the “shrunken log2 fold change” value was -0.16.

On to RRIRCRPPRLPRPRPRPLSNPRP, for which the “shrunken log2 fold change” value is 0.504.

For RRIRHRPPRLPRPRPRPHMPPRP, the “shrunken log2 fold change” value is -0.358.

As for RRIRSRPPRLPRPRPRPNIVPRP, the “shrunken log2 fold change” value was 0.238.

In the case of RRIRTRPPRLPRPRPRPQKLPRP, the “shrunken log2 fold change” value is -0.364.

RRIRGRPPRLPRPRPRPMEHPRP: the “shrunken log2 fold change” value was 0.171.
